# B1: α2-macroglobulin (protein, UniProt Q7SIH1 24-1510, looked up)
# Alpha-2-macroglobulin: SVSGKPQYMVLVPSLLHTETPEKGCLLLSHLNETVTVSASLESVRENRSLFTDVVAEKDLFHCVSFTLPRSPTSQEVMFLTIQVKGPTQEFKKRTTVLVKNEESLVFVQTDKPIYKPEQTVKFRIVLLDESFHPLNELVPLVYVEDPKGNRIAQWQNLEVENGLQQLTFPLSSEPFQGSYKVVVQKGSGGTAEHPFTVEEFVLPKFEVQVRMPKIITILEEEVQVSVCGLYTYGKPVPGRVTMNMCRKYRNPSNCYGEESNAVCEKFSGELNNEGCFSQQVNTKIFQLKRQEFEMKIEVEAKIQEEGTEVELTGKGATEITTTITKLSFVTVDSNLRRGIPFTGKVLLVDGKGVPMPNKVIFITANEANHNSNTTTDEHGLAQFSITTTKIKGTSLSIRVKYKDHSPCYGYQWLSEEHQDAYHSANLVFSRSNSFVYLEPLPRELPCGKTQTVQAHYVLKGQVLKDLKELVFYYLIMAKGGIVRSGTHTLPVEQGDMQGHFSMSVPVESDIAPVARLLIYAILPDGEVVGDSARYEIEHCLANKVGLNFSPGQSFPASQAHLRVTASPQSLCALRAVDQSVLLMRPEAELSAATVYNLLPVKDLSSFPSSVNQQEEDNEDCISHDNVYINGIMYFPVSNTNEKDMYSFLQDMGLKAFTNSKIHKPKICPQPEEHRIQHHTLLASPVRAEMGRNRDFVHFDDTSEPPTETVRKYFPETWIWDLVVVSSSGVHEVEVTVPDTITEWKAGALCLSRDTGLGLSPTASLRVFQPFFVELTMPYSVIRGEAFTLKATVLNYLPKCIRVSVQLEASPAFLAVPEKEQETYCICGNGRQTVSWAVTPKSLGNVNFTVSAEAVESQELCGSEVPVVPEHGRKDTIIKPLLVEPEGLEKEVIFNSLLCPSVDFVFLGAEDGGQVLRHFPPAAATDTAADAHDPARPGAKVSESLSLKLPPNVVEESARASFSVLGDILGSAMRNTQNLLQMPYGCGEQNMARFAPNIYVLDYLNETQQLTAELKSKAILYLNTGYQRQLLYKHFDGSYSTFGEHRGNSEGNTWLTAFVLKSFAQARGYIFIDEAHITEALTWLAQKQKSNGCFRSTGTLLNNAIKGGVDDEVTLSAYITIALLEMPLPVTHPVVRNALFCLDSAWKSAKEGSQGSHVYTKALLAYAFALAGNQERRTEVLTSLYEEAVKEDNTIHWTRPQKPRLLTEDIYQPRAPSAEVEMTAYVILAHVTAQPAPNPEDLKRATSIVKWISKQQNCQGGFSSTQDTVVALHALSRYGAATFTSARKAAQVTIQSSGTFSTKFQVENSNRLLLQQVSLPEVPGEYSMSVTGEGCVYLQTSLKYNILPKKDEFPFALEVQTLPQTCDGPKAHTSFQISLSVSYIGSRPASNMAIVDVKMVSGFIPLKPTVKMLERSNVSRTEVSNNHVLIYLDKVTNETLTLTFTVLQDIPVRDLKPAIVKVYDYYETDEFAVAEYSAPCSKDIGNA
# notes: α2-macroglobulin prepared from bovine plasma, Boehringer Mannheim Australia #602 442
# Legend:
# lens epithelial explants [1] = assay: Influence of TGFβ alone and in combination with FGF on lens epithelial explants (standard method); type: cell-based, rat; settings: TGFβ 20 ng/ml, up to 5 days culture; summary of Example 1
# Procedure: Lens explants were prepared from both postnatal and adult rats and changes during 5 days culture with growth factor(s) were monitored by light and electron microscopy, immunolocalisation of laminin, heparan sulphate proteoglycan and fibre-specific crystallins, and crystallin ELISAs.
# Each experiment involved culturing explants for up to 5 days without added growth factors (controls), with TGFβ, with a combination of TGFβ and FGF (TGFβ/FGF), or with FGF alone. FGF is another growth factor that influences lens cell behaviour (Chamberlain and McAvoy, 1989; McAvoy et al., 1991). In some experiments, explants were prepared by a standard method used in our laboratory in which the adhering capsule serves as the substratum for the cells. In others, explants were inverted onto a laminin substratum. The latter method allows cell attachment, spreading and migration to be monitored as well as providing good visualisation of individual cells. […]
# Explants used for immunofluorescent localisation were collected at the end of the culture period, fixed in Carnoy's fixative for 20 min at room temperature, transferred to 70% ethanol, then covered with a drop of melted 2.5% agar, before dehydrating in ethanol and embedding in paraffin. […] Controls for non-specific fluorescence were included routinely, that is, sections were treated with non-immune rabbit serum instead of specific antibody. […]
# lens epithelial explants [2] = assay: Lens epithelial explants cultured on laminin substratum with TGFβ and/or FGF; type: cell-based, rat; settings: explants from 21-day-old rats, TGFβ 20 ng/ml, in the presence or absence of FGF 2 ng/ml, 5 day culture
# Procedure: Each experiment involved culturing explants for up to 5 days without added growth factors (controls), with TGFβ, with a combination of TGFβ and FGF (TGFβ/FGF), or with FGF alone. FGF is another growth factor that influences lens cell behaviour (Chamberlain and McAvoy, 1989; McAvoy et al., 1991). In some experiments, explants were prepared by a standard method used in our laboratory in which the adhering capsule serves as the substratum for the cells. In others, explants were inverted onto a laminin substratum. The latter method allows cell attachment, spreading and migration to be monitored as well as providing good visualisation of individual cells.
# Bovine brain basic FGF was prepared and stored at −20° C. as described by Chamberlain and McAvoy (1989). Ultrapure natural human TGFβ1 was obtained from Genzyme (Cambridge, Mass.) and stored at −80° C. Working stock solutions of TGFβ and FGF were prepared (in culture medium or 1% bovine serum albumin—0.5 M NaCl in phosphate-buffered saline, respectively) and centrifuged at 10,000 g for 10 min at 4° C. just before use.
# This method is as described by Hales et al (1992) Briefly, on the day before the experiment, culture dishes were pre-coated with laminin. […] Responses were monitored daily by phase contrast microscopy.
# [3] = tested on: TGFβ-induced cataract-like changes in rat lens epithelial explants; assay: Explant study using α2-macroglobulin to inhibit TGFβ-induced cataract-like changes; type: cell-based; set-up: key to cataract-like changes: extent of spindle-like elongation: −, negligible change or reverted to predominantly epithelial morphology; +-++++, indicates extent of spindle-like elongation; +-++++, indicates extent of spindle-like elongation; +-++++, indicates extent of spindle-like elongation; +-++++, indicates extent of spindle-like elongation; †-††††, indicates extent of cell loss; †-††††, indicates extent of cell loss; †-††††, indicates extent of cell loss; †-††††, indicates extent of cell loss; o, elongation assessment was invalidated by cell loss
# Procedure: α2-macroglobulin prepared from bovine plasma was obtained from Boehringer Mannheim Australia (Castle Hill, NSW; #602 442). Lens epithelial explants (2 per culture dish) were prepared from 21-day-old rats as described previously (See Example 1, Standard Method). α2-macroglobulin was dissolved in culture medium (defined in Example 1) at a final concentration of 400 μg/ml. The solution was sterilised by passing through a 0.22 μm filter and a portion was diluted with an equal volume of sterile medium. These solutions were equilibrated at 37° C. in 5% CO2/air before use. A stock solution containing 25 pg/10 μl TGFβ2 (Genzyme, Cambridge, Mass.) was prepared in sterile medium. Six treatment groups were then set up by replacing medium in culture dishes containing explants with 1 ml medium or 1 ml medium containing 200 or 400 μg/ml α2-macroglobulin, with or without added TGFβ, as indicated in Table 2. Explants were cultured and monitored for cataract-like changes by phase contrast microscopy. In particular, each explant was graded according to the extent of spindle-like elongation and cell death, which are characteristically observed in explants cultured with TGFβ (See Examples 1 and 2). Explants were photographed on days 3-5.
# [4] = Day 4, TGFβ2 25 pg/ml, α2-MG 200 μg/ml
# [5] = Day 4, TGFβ2 25 pg/ml, α2-MG 400 μg/ml
# [6] = Day 5, TGFβ2 25 pg/ml, α2-MG 200 μg/ml
# [7] = Day 5, TGFβ2 25 pg/ml, α2-MG 400 μg/ml
molecule,measurement,setting,value
TGFβ: Ultrapure natural human TGFβ1 obtained from Genzyme (Example 1),cell elongation in explants,lens epithelial explants [1],extensive and rapid elongation
same,other TGFβ-induced cataract-like responses in explants,lens epithelial explants [1],"induced accumulation of extracellular matrix, capsule wrinkling, cell death by apoptosis and distinctive arrangements of cells"
same,cell spreading and migration onto laminin substratum,lens epithelial explants [2],inhibited spreading and migration
B1,cataract-like changes: extent of spindle-like elongation,"[3]; Day 2, TGFβ2 0 pg/ml, α2-MG 200 μg/ml",−
same,cataract-like changes: extent of spindle-like elongation,"[3]; Day 2, TGFβ2 0 pg/ml, α2-MG 400 μg/ml",−
same,cataract-like changes: extent of spindle-like elongation,"[3]; Day 2, TGFβ2 25 pg/ml, α2-MG 200 μg/ml",−
same,cataract-like changes: extent of spindle-like elongation,"[3]; Day 2, TGFβ2 25 pg/ml, α2-MG 400 μg/ml",−
same,cataract-like changes: extent of spindle-like elongation,"[3]; Day 3, TGFβ2 0 pg/ml, α2-MG 200 μg/ml",−
same,cataract-like changes: extent of spindle-like elongation,"[3]; Day 3, TGFβ2 0 pg/ml, α2-MG 400 μg/ml",−
same,cataract-like changes: extent of spindle-like elongation,"[3]; Day 3, TGFβ2 25 pg/ml, α2-MG 200 μg/ml","+ (+-++++, indicates extent of spindle-like elongation)"
same,cataract-like changes: extent of spindle-like elongation,"[3]; Day 3, TGFβ2 25 pg/ml, α2-MG 400 μg/ml","+ (+-++++, indicates extent of spindle-like elongation)"
same,cataract-like changes: extent of spindle-like elongation,"[3]; Day 4, TGFβ2 0 pg/ml, α2-MG 200 μg/ml",−
same,cataract-like changes: extent of spindle-like elongation,"[3]; Day 4, TGFβ2 0 pg/ml, α2-MG 400 μg/ml",−
same,cataract-like changes: extent of cell loss,[3]; [4],"† (†-††††, indicates extent of cell loss)"
same,cataract-like changes: extent of spindle-like elongation,[3]; [4],"+ (+-++++, indicates extent of spindle-like elongation)"
same,cataract-like changes: extent of cell loss,[3]; [5],"† (†-††††, indicates extent of cell loss)"
same,cataract-like changes: extent of spindle-like elongation,[3]; [5],"+ (+-++++, indicates extent of spindle-like elongation)"
same,cataract-like changes: extent of spindle-like elongation,"[3]; Day 5, TGFβ2 0 pg/ml, α2-MG 200 μg/ml",−
same,cataract-like changes: extent of spindle-like elongation,"[3]; Day 5, TGFβ2 0 pg/ml, α2-MG 400 μg/ml",−
same,cataract-like changes: extent of cell loss,[3]; [6],"† (†-††††, indicates extent of cell loss)"
same,cataract-like changes: extent of spindle-like elongation,[3]; [6],−
same,cataract-like changes: extent of cell loss,[3]; [7],"† (†-††††, indicates extent of cell loss)"
same,cataract-like changes: extent of spindle-like elongation,[3]; [7],−
same,inhibition of TGFβ-induced changes,"[3]; TGFβ2 25 pg/ml, α2-macroglobulin 200 or 400 μg/ml, days 2-5",substantially inhibited
same,changes in explants cultured without TGFβ,"[3]; medium containing α2-macroglobulin 200 or 400 μg/ml, no TGFβ, throughout the culture period",No significant changes
